Data from article PMC3670040, “Structure of Lipid Kinase p110β/p85β Elucidates an Unusual SH2-Domain-Mediated Inhibitory Mechanism” (Molecular Cell, 2011).
Read-outs that look alike come from different tables or passages of the source.

Columns and labels:
p110β [1] = assay: Transcreener ADP formation (fluorescence polarization), diC8-PIP2/POPS liposomes, mouse p110β complexes; assay type: biochemical; settings: for EC50: Figure 3A, Y677A vs wild-type, diC8-PIP2/POPS, 100 μM ATP, 1 h, room temperature
Experimental: (§1) Figure 1 Inhibition of p110β by p85-Type Regulatory Subunits and Activation of the Complexes by RTK Phosphopeptide (A) Domain organization of p110β and the regulatory subunits p85α, p85β, and p55γ. The color scheme for the domains is used for all figures, unless otherwise stated. […] The inhibition is released upon addition of the 10 μM PDGFR pY2. […] The y axis is expressed as a change in fluorescence polarization (ΔmP), which is obtained by subtracting the observed polarization for the construct at a given enzyme concentration from the maximum fluorescence polarization for that construct. The plateau in these assays arises due to the competitive nature of the ADP detection system, based on displacement of ADP-Alexa 633 tracer from the ADP^2-antibody by ADP generated during the PI3K assay (see Supplemental Experimental Procedures). All measurements were done in triplicates, and the error bars indicate the standard error of the mean (SEM). (C) Kinase activity of p110β/p85β complexes with monomeric substrate (75 μM diC8-PIP2) in the presence and absence of pY2; y axis as in (B). (D) Basal- and pY2-stimulated activities of 35 nM PI3K complexes in the absence of lipids (ATP hydrolysis). Activities are given as percent of ATP converted to ADP using the Transcreener assay. Bars indicate SEM. TEXT PRINTED IN THE PICTURE: (B) p110β/nic: EC50 (nM): 15 | (B) p110β/nic+pY2: EC50 (nM): 0.14 | (B) p110β/ic: EC50 (nM): 1 | (B) p110β/ic+pY2: EC50 (nM): 0.21 | (B) p110β/ni: EC50 (nM): 0.84 | (B) p110β/ni+pY2: EC50 (nM): 0.24 | (B) p110β/i: EC50 (nM): 0.12 | (B) p110β/i+pY2: EC50 (nM): 0.14 | (B) ΔABD-p110β: EC50 (nM): 0.06 | (B) ΔABD-p110β+pY2: EC50 (nM): 0.05 | (C) p110β/nic: EC50 (nM): 24 | (C) p110β/nic+pY2: EC50 (nM): 3 | (C) p110β/ic: EC50 (nM): 5 | (C) p110β/ic+pY2: EC50 (nM): 2 | (C) p110β/ni: EC50 (nM): 4 | (C) p110β/ni+pY2: EC50 (nM): 2 […]
(§2) Figure 3 Mutation Y677A in p85β-cSH2 Releases Inhibitory Effect on p110β (A) Kinase activity (ADP formation) of p110β in a complex with p85β-icSH2-Y677A (Y677A-ic) compared to the wild-type complex (ic) in the absence and presence of 10 μM PDGFR pY2 (ADP formation on the y axis expressed as in Figure 1B). (B) Comparison of p110β activities of 1 nM complexes with wild-type or Y677 mutant nicSH2 or icSH2 (activity shown as in Figure 1D). TEXT PRINTED IN THE PICTURE: (A) p110β/ic: EC50 (nM): 1 | (A) p110β/ic+pY2: EC50 (nM): 0.15 | (A) p110β/ic-Y677A: EC50 (nM): 0.11 | (A) p110β/ic-Y677A+pY2: EC50 (nM): 0.08 […]
(§3) The lipid kinase activity was determined using the Transcreener ADP2 FP Assay (BellBrook Labs, Madison, WI) according to manufacturer‟s specifications. This non-radioactive assay measures activity by quantitating the amount of ADP formed. The ADP formed by PI3K competes with fluorescent ADP tracer for binding to an anti-ADP antibody, thereby decreasing fluorescence polarization. Because of the competitive nature of this assay, the change in fluorescence polarization signal is not a linear function of enzyme activity, and a convenient measure of enzyme activity is the EC50, or the concentration of enzyme necessary to give half-maximal inhibition of labeled ADP binding to the antibody, for a given concentration of substrate and a fixed time of reaction at initial rate. While activity of two different enzyme constructs can be compared at a fixed concentration of protein and a fixed concentration of substrate, the assay is most reliable when about 2%-10% of the ATP is […]
(§4) Consequently, the EC50 provides a convenient way to compare the activities of various constructs. Briefly, reactions were performed in 10 μl volume in 384-well black plates (Corning 3676) and they contained final 100 μM ATP, 75 μM lipids and a series of protein concentration varying from 0.001 nM to 2.5 μM. Serial dilutions of protein heterodimers were prepared in buffer F (50 mM Hepes pH 7.5, 100 mM NaCl, 0.03% CHAPS, 4 mM DTT) in 5 μl […]
volume. […]

p110β [2] = target: T1, p110β (Mus musculus, UniProt Q8BTI9); assay: as above; assay type: biochemical; settings: 10 μM PDGFR pY2; Figure 3A
T1 construct: Mouse His6-p110β(1-1064)/p85β-icSH2(423-722) complex; made in house; host or cells: Sf9 insect cells (baculovirus co-infection)
T1 sequence (Q8BTI9 whole entry, one chain of several): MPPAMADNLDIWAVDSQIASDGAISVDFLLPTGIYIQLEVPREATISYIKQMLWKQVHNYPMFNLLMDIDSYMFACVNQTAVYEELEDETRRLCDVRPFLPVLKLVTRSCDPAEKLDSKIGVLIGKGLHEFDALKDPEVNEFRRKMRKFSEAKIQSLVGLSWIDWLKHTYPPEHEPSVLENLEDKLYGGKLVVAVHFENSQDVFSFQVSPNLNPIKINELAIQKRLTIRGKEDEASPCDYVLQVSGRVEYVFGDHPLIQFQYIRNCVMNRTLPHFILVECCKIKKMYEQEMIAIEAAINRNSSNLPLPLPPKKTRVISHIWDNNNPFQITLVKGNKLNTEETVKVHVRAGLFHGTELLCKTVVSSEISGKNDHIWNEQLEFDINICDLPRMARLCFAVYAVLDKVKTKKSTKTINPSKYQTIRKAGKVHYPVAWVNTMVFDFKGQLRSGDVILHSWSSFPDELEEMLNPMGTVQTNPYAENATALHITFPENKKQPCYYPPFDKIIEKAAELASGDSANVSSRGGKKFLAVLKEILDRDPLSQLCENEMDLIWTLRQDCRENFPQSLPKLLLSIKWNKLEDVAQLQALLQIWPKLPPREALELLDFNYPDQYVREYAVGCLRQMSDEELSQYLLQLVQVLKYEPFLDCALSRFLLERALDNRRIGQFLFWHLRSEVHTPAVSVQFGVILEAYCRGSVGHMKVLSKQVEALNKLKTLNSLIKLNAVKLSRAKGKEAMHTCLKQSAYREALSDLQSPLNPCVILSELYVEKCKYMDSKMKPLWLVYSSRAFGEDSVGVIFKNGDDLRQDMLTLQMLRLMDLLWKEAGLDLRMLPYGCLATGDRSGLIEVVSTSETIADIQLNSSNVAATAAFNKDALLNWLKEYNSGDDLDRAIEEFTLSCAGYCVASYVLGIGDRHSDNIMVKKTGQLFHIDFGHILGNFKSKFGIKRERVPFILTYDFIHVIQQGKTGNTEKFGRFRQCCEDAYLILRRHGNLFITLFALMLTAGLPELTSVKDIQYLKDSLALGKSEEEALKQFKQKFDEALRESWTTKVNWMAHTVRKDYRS
Experimental: as §1, §2, §3, §4
volume. […]

B1: p110β/ic-Y677A: p110β in a complex with p85β-icSH2-Y677A (protein)
chain: QQDQVVKEDSIEAVGAQLKVYHQQYQDKSREYDQLYEEYTRTSQELQMKRTAIEAFNETIKIFEEQGQTQEKCSKEYLERFRREGNEKEMQRILLNSERLKSRIAEIHESRTKLEQDLRAQASDNREIDKRMNSLKPDLMQLRKIRDQYLVWLTQKGARQRKINEWLGIKNETEDQYSLMEDEDALPHHEERTWYVGKINRTQAEEMLSGKRDGTFLIRESSQRGCYACSVVVDGDTKHCVIYRTATGFGFAEPANLYGSLKELVLHYQHASLVQHNDALTVTLAHPVRAPGPGPPSAAR
p110β [1]; absence of pY2, read-out: EC50 (enzyme concentration), kinase activity, basal
  EC50: 0.11 nM
p110β [1]; with 10 μM PDGFR pY2, read-out: EC50 (enzyme concentration), kinase activity, + pY2
  EC50: 0.08 nM
p110β [1]; absence of pY2, ADP formation, Figures 3A, 3B
  basal activity versus wild-type complex: more active than the wild-type p110β/p85β-icSH2
p110β [2]
  activation by pY2: not activated by pY2
